{"source": "paper PMC4505822", "molecular_target": "wild-type full-length recombinant human prion protein (human) (UniProt P04156)", "experiment": "AFM height measurement with a calibration curve of marker proteins"}
{"substance": "wild-type full-length recombinant human prion protein (from UniProt P04156 23-231) (natural protein)", "values": [{"measurement": "stoichiometry N", "result": "11 to 22", "unit": "monomers"}]}
